Results taken from patent US20190112341.

System: EV71 structural polyprotein P1 (Wt HK08), unprocessed (98 kDa)

Substance	proteolytic processing of P1 in planta, anti-VP1 western blot (vectors 1300+1315)	proteolytic processing of P1 in planta, anti-VP1 western blot (vectors 1300+1310)
EV71 protease 3CD (Wt GDFS08)	the 98 kDa signal completely disappears and a new product is detected that corresponds in molecular weight to VP1 (33.5 kDa)	–
EV71 protease 3CD (Wt HK08)	–	the 98 kDa signal completely disappears and a new product is detected that corresponds in molecular weight to VP1 (33.5 kDa)
